# Laboratory results: PMC8866402, “Fortilin interacts with TGF-β1 and prevents TGF-β receptor activation” (Communications Biology, 2022)
# How the values were obtained:
# [1] = target: T1, recombinant human Flag-tagged p53 (human, UniProt P04637 1-393); assay: co-IP; in vitro mixture of recombinant Flag-fortilin, TGF-β1, Flag-p53 and His6-NQO2 in Buffer A (10 mM Tris pH 7.4, 100 mM NaCl, 0.01% NP-40); rabbit anti-fortilin mAb or rabbit IgG, 2 h room temperature; anti-rabbit IgG Dynabeads; four washes in Buffer B (0.3% NP-40); western blot; conditions: both partners purified
# T1 construct: p53, human; Positive control of the co-IP; also called rh-p53; source: bought: OriGene (Catalog #: TP300003)
# T1 sequence (P04637 whole entry): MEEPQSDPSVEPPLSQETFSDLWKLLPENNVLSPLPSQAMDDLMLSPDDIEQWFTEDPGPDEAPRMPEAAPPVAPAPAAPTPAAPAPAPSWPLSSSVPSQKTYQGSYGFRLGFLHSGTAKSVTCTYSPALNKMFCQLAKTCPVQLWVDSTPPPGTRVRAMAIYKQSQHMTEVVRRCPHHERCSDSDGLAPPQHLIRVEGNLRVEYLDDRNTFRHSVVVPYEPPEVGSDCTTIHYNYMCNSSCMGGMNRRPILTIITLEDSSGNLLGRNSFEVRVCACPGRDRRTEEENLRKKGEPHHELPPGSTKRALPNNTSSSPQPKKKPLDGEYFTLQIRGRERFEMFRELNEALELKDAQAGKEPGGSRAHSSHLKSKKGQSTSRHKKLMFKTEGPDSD
# [2] = target: T2, recombinant human latency-associated-peptide (LAP)-TGF-β1 protein (human, UniProt P01137 30-278); assay: BLI; BLItz; biotinylated rh-fortilin immobilised on streptavidin biosensors (30 μg/mL, PBS); various concentrations of analyte, 180 s association, 180 s dissociation in PBS; conditions: both partners purified
# T2 construct: TGF-β1 precursor, human; 'latency-associated-peptide (LAP)-TGF-β1'; As far as I recall, R&D Systems 246-LP is the LAP of TGF-β1 alone (about Leu30-Arg278 of the precursor), not the latent complex; also called LAP-TGF-β1 molecule; source: bought: R&D Systems (Catalog #: 246-LP-025/CF)
# T2 sequence (P01137 30-278): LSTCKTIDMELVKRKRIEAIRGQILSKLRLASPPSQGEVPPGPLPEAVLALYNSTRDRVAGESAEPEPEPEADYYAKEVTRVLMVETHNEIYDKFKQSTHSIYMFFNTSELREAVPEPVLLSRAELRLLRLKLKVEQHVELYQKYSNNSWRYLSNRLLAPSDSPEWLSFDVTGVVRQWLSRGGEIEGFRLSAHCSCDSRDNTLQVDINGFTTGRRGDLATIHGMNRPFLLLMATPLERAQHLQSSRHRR
Binder,binding result [1],Kd [2] [nM]
"recombinant human Flag-tagged fortilin (natural protein, fortilin, human; the abstract calls fortilin a 172-amino acid protein; also called rh-fortilin; source: bought: OriGene (Catalog #: TP301664)) MIIYRDLISHDEMFSDIYKIREIADGLCLEVEGKMVSRTEGNIDDSLIGGNASAEGPEGEGTESTVITGVDIVMNHHLQETSFTKEAYKKYIKDYMKSIKGKLEEQRPERVKPFMTGAAEQIKHILANFKNYQFFIGENMNPDGMVALLDYREDGVTPYMIFFKDGLEMEKC",binds,–
"biotinylated rh-fortilin (natural protein, human, biotin (NHS-PEG4-biotin), fortilin, human; The BLI methods say only 'rh-fortilin'; also called biotinylated fortilin; source: rh-fortilin biotinylated with NHS-PEG4-biotin and desalted) MIIYRDLISHDEMFSDIYKIREIADGLCLEVEGKMVSRTEGNIDDSLIGGNASAEGPEGEGTESTVITGVDIVMNHHLQETSFTKEAYKKYIKDYMKSIKGKLEEQRPERVKPFMTGAAEQIKHILANFKNYQFFIGENMNPDGMVALLDYREDGVTPYMIFFKDGLEMEKC",–,930
